Data on 32 variants can be found in the RNAGym collection of RNA variant scans (doi:10.7554/elife.80360).

To fix the notation:
B1: HDV Ribozyme (parent)
chain: GGCCGGCAUGGUCCCAGCCUCCUCGCUGGCGCCGGCUGGGCAACAUUCCGAGGGGACCGUCCCCUCGGUAAUGGCGAAUGGGACCCA

Variants of B1 are the subject of this data set. In words: self-cleavage, relative activity (ratio to wild type); higher = more cleavage; co-transcriptional.
As to GGCCGGCAUAGUCCCAGCCUCCUCGCUGGCGCCGGCUGGGCACCAUUCCGAGGGGACCGUCCCCUCGGUAAUGGCGAAUGGGACCCA [G10A A43C], the self-cleavage came to 0.176. The same measure for GGCCGCCAUGGUCCCAGCCUCCUCGCUGGCGCCGGCUGGGCAACAUUCCGAGGGGACCGUCCCCUCGGUAAUAGCGAAUGGGACCCA [G6C G73A]: 0.0723; for GGCCGGCAUGGUCCCAGCCUCCUCGCUGGCGCCGGCUGGGCAACAUUCCGAGGGGACCGUCCCCUCGGUAAUGGCGAAUGGGACUCC [C85U A87C]: 0.933. The same measure for GGCCGGCAUGGUCCCGGCCUCCUUGCUGGCGCCGGCUGGGCAACAUUCCGAGGGGACCGUCCCCUCGGUAAUGGCGAAUGGGACCCA [A16G C24U]: 0.808.

GGCCGGCAUGGUACCAGCCUCCUCGCUGGCGCCGGCUGGGCAACAUUCCGAGGGGACCGUCCUCUCGGUAAUGGCGAAUGGGACCCA [C13A C63U]: the self-cleavage is 0.0627. The same measure for GGCCGGCAUGGUCCCAGCCUCCUCGCUGGCGCCGGCUGGGCACCAUUCCGAGGGGACCGUCCCCUCGGUAAUGGCGAAUGGGACCCG [A43C A87G]: 0.306; for GGCCGGCAUGGUGCCAGCCUCCUCGCUGGCGCCGGCUGGGCAACAUUCCGAGGGGACCGUCCCCGCGGUAAUGGCGAAUGGGACCCA [C13G U65G]: 0.115. In the case of GGCCGGCAUGGUCCCAGCCUCCUCGCUGGCGCCGGCUGGGCAACAUUCCGAGGGGACCGUCCCAGCGGUAAUGGCGAAUGGGACCCA [C64A U65G], the self-cleavage came to 0.937. Turning to GGCCGGCAUGGUCCCAGCCUCCUCGCUGGCGCCGGCUGGGCAACAUUCCGAGGGGACCCUCCCCUCGGUAAUGGCGAAUGUGACCCA [G59C G81U], the self-cleavage is 0.415. The value for GGCCGGCAUGGUCCCACCCUCCUCGCUGGCGCCGGCUGGGCAACAUUCCGAGGCGACCGUCCCCUCGGUAAUGGCGAAUGGGACCCA [G17C G54C] was 0.447; that for GGCCGGAAUGGUCCCAGCCUCCUCGCUGGCGCCGGCUGGGCAACAUUCCGAGGGGACCGUCCCCUCGGUAAUGGCGAAUGGGACUCA [C7A C85U] was 0.807. The same measure for GGCCGGAAUGGUCCCAGCCUCCUCGCUGGCUCCGGCUGGGCAACAUUCCGAGGGGACCGUCCCCUCGGUAAUGGCGAAUGGGACCCA [C7A G31U]: 1.07. With GGCCGGCAUGGUCCCAGCCUCCUCGCCGGCGCCGGCUGGGCAACAUUCCGAGGGGACCGUCCCCUCCGUAAUGGCGAAUGGGACCCA [U27C G67C], the self-cleavage was determined as 0.997. With GGCCGGCAUGGUCCCAGCCUCCUCGCUGGCGCCGGCUGGGCAACAUUCCAAGGGGACCGUCCCCUCGGUAAUGGCGAAUGGGGCCCA [G50A A83G], the self-cleavage stood at 0.99. GGCCGGCAUGGUCCCUGCCUCCUCGCUGGCGCCGGCUGGGCAACAUUGCGAGGGGACCGUCCCCUCGGUAAUGGCGAAUGGGACCCA [A16U C48G]: the self-cleavage is 1.2. The same measure for GGCCGGCAUGGUCCCAGCCUCCUCGCUGGCGCCGGCUGGGCAACAUUCUGAGGGGACCCUCCCCUCGGUAAUGGCGAAUGGGACCCA [C49U G59C]: 0.799. Turning to GGCCGGCAUGGUCCCAGCCUCCUCGCUGGCGCCGGCUGGGCAACAUUCCGGGGGGACCGUCCCCUCGGUAAUGGAGAAUGGGACCCA [A51G C75A], the self-cleavage came out at 0.17. The same measure for GGCCAGCAGGGUCCCAGCCUCCUCGCUGGCGCCGGCUGGGCAACAUUCCGAGGGGACCGUCCCCUCGGUAAUGGCGAAUGGGACCCA [G5A U9G]: 0.111; for GGCCGGCAUGGUCCCAGCCUCCUCGCUGGCGCCGGCUGGGCAACAUUCCGAGGGGACCGUCCUCUCGGGAAUGGCGAAUGGGACCCA [C63U U69G]: 0.875.

Regarding GGCCGGCAUGUUCCCAGCCUCGUCGCUGGCGCCGGCUGGGCAACAUUCCGAGGGGACCGUCCCCUCGGUAAUGGCGAAUGGGACCCA [G11U C22G], the self-cleavage worked out at 0. The same measure for GGCCGGCAUGGUCCGAGCCUCCUCGCUGGCGCCGGCUGGGCAACAUUCCGAGGGGACCGUCCCCUCGGUAAUGGCGAAUGGGACCAA [C15G C86A]: 0.712; for GGCCGGCAUGGUCCCAGCCUCCUCGCUGGCGCCGACUGGGCAACAUUCCGAGGGGACCGUCCCCUCGGUAUUGGCGAAUGGGACCCA [G35A A71U]: 0.389; for GGCCGGCAUGGUCCCAGCAUCCUCGCUGGCGCUGGCUGGGCAACAUUCCGAGGGGACCGUCCCCUCGGUAAUGGCGAAUGGGACCCA [C19A C33U]: 0.

For GGCCGGCAUGGUCCCAGCCCCCUCGCUGGCGCCGGCUGGGCAACAUUCCGAGUGGACCGUCCCCUCGGUAAUGGCGAAUGGGACCCA [U20C G53U], the self-cleavage amounted to 0.101. As to GGCCGGCAUGGUCACAGCCUCCUCGCUGGCGCCGGCUGGGCAACAUUCCGAGGGGACCGUCCCCUCGGUAAUGGCGAAUGGGUCCCA [C14A A83U], the self-cleavage worked out at 0.499. The value for GGCCGGCAUGGUCCCAGCUUCCUCGCUGGCGCCGGCUGGGCAACAUUCCGAGGGGACCGUCCCUUCGGUAAUGGCGAAUGGGACCCA [C19U C64U] was 0.148; that for GGCCGGCGUGGUCCCAGCCUCCUCGCUGGCGCCGGCUGGGCAACAUUCCGAGGGUACCGUCCCCUCGGUAAUGGCGAAUGGGACCCA [A8G G55U] was 0.804. In the case of GGCAGGCAUGGUCCCAGCCUCCUCGCUGGCGCCGGCUGGGCAACAUUCCGAGGGGACCGUCCCCUCGGUAAAGGCGAAUGGGACCCA [C4A U72A], the self-cleavage stood at 0.0723. With GGCCGGCAUGGUCCCAGCCUCCUCGCUGGCGCCGGCUGGGCAACAUUCCGUGGCGACCGUCCCCUCGGUAAUGGCGAAUGGGACCCA [A51U G54C], the self-cleavage is 0.982. The value for GGCCGGCAUGGUCCCAGCCUCCUCGCUGGCGCCGGCUGGGCAACCUUCCGAGGGGACCGUCCCCUCGGUAAUGGUGAAUGGGACCCA [A45C C75U] was 0.201; that for GGCCGGCAUGGUCCCAGCCUCCUCGCUGGCUCCGGCAGGGCAACAUUCCGAGGGGACCGUCCCCUCGGUAAUGGCGAAUGGGACCCA [G31U U37A] was 0.172. Regarding GGCCGGCAUGGUCCCAGCCUCCUCGCUGGCGCCGGCUGGGCAACAUUCCGAGGGGACCGCCCCCUCGGUAAAGGCGAAUGGGACCCA [U60C U72A], the self-cleavage came out at 0.755.
